Data reported in US20110039770A1 (PHARMAGAP, published 2011).
Where no end group is shown, it is not given here.

How the values were obtained:
PKC-α = PKC-α (UniProt P17252 1-672, limits assumed); assay: cell-based or functional assay
PKC-βI = PKC-βI (UniProt P05771-1 1-671, limits assumed); assay: cell-based or functional assay
PKC-ε = biological target: T1, PKC-ε (UniProt Q02156 1-737); assay: cell-based or functional assay
T1 sequence (looked up): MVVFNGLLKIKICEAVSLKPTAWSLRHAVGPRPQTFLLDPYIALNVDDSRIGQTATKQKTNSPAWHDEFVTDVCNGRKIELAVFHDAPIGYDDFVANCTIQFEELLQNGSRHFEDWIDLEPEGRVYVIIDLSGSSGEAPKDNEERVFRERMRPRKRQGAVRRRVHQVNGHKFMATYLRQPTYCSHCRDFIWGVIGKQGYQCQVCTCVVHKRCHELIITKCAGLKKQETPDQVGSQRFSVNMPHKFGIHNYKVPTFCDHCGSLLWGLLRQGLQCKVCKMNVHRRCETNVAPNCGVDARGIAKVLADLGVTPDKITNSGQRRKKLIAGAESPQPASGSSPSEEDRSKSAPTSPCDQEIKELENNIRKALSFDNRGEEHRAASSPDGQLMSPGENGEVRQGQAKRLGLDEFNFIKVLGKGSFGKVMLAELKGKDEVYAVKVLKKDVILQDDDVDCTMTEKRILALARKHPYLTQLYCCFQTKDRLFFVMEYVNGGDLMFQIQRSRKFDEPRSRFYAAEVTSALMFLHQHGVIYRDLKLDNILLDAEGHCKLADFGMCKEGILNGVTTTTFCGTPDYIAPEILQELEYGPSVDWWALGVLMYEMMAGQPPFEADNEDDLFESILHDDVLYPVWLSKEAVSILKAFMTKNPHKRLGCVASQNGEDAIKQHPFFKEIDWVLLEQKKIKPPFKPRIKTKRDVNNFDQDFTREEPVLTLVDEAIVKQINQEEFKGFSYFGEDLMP

PKC-α (purified isoform) [1] = biological target: T2, PKC-α (purified isoform) (Homo sapiens (Human), UniProt P17252 2-672); assay: competitive ELISA, coated purified PKC-α, vs anti-PKC α (SC-208); PRE 50 µM
T2 construct: also called purified PKC-alpha; commercially purified PKC-alpha
Protocol: (§1) Greiner 96 well ELISA plates were coated with the appropriate PKC isoform diluted in PBSN (PBS with Calcium/Magnesium+0.05% Sodium azide w/w). 50 μL/well at 250 ng/mL was used. Control wells contained PBSN only. Plates were incubated overnight at 4° C.
(§2) The plates were washed 3 times with 200 μL of dH₂O per well, then 100 μL of blocking solution was added per well and the plate incubated for 1 h at 37° C. The washing steps with dH₂O were repeated and 50 μL of the appropriate PRE solution (PRE stock solution [20 mM in DMSO] diluted in PBSN) was added and the plate incubated for 1 h at room temperature.
(§3) 50 μL of 1:1000 dilution of Alkaline Phosphatase (AP) conjugated antibody (anti-rabbit for all except zeta, which was anti-goat) was then added and the plate incubated for 1 h at room temperature. Washing with dH₂O was then repeated. Finally, 100 μL of pNPP solution in pNPP buffer (2 mM MgCl₂, 100 mM Sodium bicarbonate in water, pH 9.8) was added to all wells and incubated for 8 minutes for α, βI, βII ε, and ζ, or for 15-20 mins for δ (until sufficient coloration is observed). The reaction was stopped by addition of Stop solution (2N NaOH) and the absorbance at 405 nm was read on a Galaxy Plate reader.

PKC-δ (purified isoform) [2] = biological target: T3, PKC-δ (purified isoform); assay: competitive ELISA, coated purified PKC-δ, vs anti-PKC δ (SC-213); PRE 50 µM
T3 construct: also called PKC-delta
T3 sequence (Q05655 whole entry, stated change not applied, canonical isoform): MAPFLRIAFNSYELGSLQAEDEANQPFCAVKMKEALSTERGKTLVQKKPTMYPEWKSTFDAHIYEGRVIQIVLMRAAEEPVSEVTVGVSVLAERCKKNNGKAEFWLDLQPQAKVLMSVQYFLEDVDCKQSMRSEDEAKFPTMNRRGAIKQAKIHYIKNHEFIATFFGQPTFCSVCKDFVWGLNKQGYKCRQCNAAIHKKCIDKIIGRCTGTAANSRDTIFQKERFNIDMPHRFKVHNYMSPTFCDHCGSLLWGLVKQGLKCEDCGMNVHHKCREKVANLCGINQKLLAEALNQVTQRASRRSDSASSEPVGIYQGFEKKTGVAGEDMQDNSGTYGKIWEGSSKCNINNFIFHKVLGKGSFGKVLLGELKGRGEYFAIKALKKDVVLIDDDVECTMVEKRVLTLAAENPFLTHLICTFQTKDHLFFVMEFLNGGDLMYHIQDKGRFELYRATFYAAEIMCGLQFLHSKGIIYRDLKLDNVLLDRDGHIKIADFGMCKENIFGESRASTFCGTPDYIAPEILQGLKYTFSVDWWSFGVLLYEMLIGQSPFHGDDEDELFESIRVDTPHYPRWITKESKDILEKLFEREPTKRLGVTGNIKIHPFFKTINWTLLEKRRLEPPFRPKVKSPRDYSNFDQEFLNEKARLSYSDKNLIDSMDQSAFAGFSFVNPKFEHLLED
Protocol: as §1, §2, §3

PKC-α (purified isoform) [3] = biological target: T2, PKC-α (purified isoform); assay: competitive ELISA, coated purified PKC-α, vs anti-PKC α (SC-208); PRE 100 µM
Protocol: as §1, §2, §3

PKC-α (purified isoform) [4] = biological target: T2, PKC-α (purified isoform); assay: competitive ELISA, coated purified PKC-α, vs anti-PKC α (SC-208); PRE 200 µM
Protocol: as §1, §2, §3

PKC-δ (purified isoform) [5] = biological target: T3, PKC-δ (purified isoform); assay: competitive ELISA, coated purified PKC-δ, vs anti-PKC δ (SC-213); PRE 100 µM
Protocol: as §1, §2, §3

PKC-δ (purified isoform) [6] = biological target: T3, PKC-δ (purified isoform); assay: competitive ELISA, coated purified PKC-δ, vs anti-PKC δ (SC-213); PRE 200 µM
Protocol: as §1, §2, §3

[7] = biological target: T4, PKC-βI (purified isoform) (Homo sapiens (Human), UniProt P05771 2-671); assay: competitive ELISA, coated purified PKC-βI, vs anti-PKC βI (SC-209); PRE 50 µM
T4 construct: also called PKC-beta I; PKC beta 1
T4 sequence (P05771 2-671 limits assumed): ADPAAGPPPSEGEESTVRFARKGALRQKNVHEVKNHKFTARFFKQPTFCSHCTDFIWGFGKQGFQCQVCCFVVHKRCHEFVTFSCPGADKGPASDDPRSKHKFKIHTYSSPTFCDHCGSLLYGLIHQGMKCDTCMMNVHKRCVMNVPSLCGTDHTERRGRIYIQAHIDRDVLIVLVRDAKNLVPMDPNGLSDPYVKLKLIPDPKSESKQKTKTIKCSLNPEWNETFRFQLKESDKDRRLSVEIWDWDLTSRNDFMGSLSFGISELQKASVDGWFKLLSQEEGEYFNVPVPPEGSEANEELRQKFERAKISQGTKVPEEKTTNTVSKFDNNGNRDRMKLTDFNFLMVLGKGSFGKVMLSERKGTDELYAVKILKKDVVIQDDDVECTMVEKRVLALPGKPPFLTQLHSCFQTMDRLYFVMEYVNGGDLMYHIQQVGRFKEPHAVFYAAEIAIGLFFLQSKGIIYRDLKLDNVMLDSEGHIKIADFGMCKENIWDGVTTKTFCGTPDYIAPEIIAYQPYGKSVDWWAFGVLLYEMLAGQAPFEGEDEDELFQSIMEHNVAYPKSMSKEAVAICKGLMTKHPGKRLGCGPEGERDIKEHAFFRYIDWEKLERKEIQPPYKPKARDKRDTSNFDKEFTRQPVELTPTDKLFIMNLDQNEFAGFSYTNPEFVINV
Protocol: as §1, §2, §3

[8] = biological target: T4, PKC-βI (purified isoform); assay: competitive ELISA, coated purified PKC-βI, vs anti-PKC βI (SC-209); PRE 100 µM
Protocol: as §1, §2, §3

[9] = biological target: T4, PKC-βI (purified isoform); assay: competitive ELISA, coated purified PKC-βI, vs anti-PKC βI (SC-209); PRE 200 µM
Protocol: as §1, §2, §3

[10] = biological target: T5, PKC-ε (endogenous, IMR-32 lysate) (human, UniProt Q02156 1-737); assay: WB competition Protocol B, IMR-32 extract, vs anti-PKC-ε Ab; PKC-ε Band 1; 20 µg peptide
T5 construct: Band 1 and Band 2 (alternate splicing variants, not identified further) are kept under one molecule; the band is named in the assay field of each row; also called PKC-epsilon; PKC-ε Band 1
T5 sequence (looked up): T1 sequence (looked up)
Protocol: (§4) The ability of the peptides PRE 2 and PRE 3 (see Table 4) to interfere with the binding of a PKC-α-specific polyclonal antibody (Santa Cruz Biotechnology, Inc.) to PKC-α was determined using a modified version of the protocol outlined above in which the test peptide was added directly to the cell extract prior to electrophoresis at a concentration of either 5× or 15× the concentration of the protein applied to each well of the gel for the Western blots (20 μg).
(§5) Peptides PRE 2, PRE 3 and PRE 4 (see Table 4) were tested for their ability to interfere with the binding of isoform-specific polyclonal antibodies (Santa Cruz Biotechnology, Inc.) to […] using the general protocol described in Example 3. Two bands, representing alternate splicing variants of PKC-ε, were identified on the Western blot using this anti-PKC-ε antibody.

[11] = biological target: T5, PKC-ε (endogenous, IMR-32 lysate); assay: WB competition Protocol B, IMR-32 extract, vs anti-PKC-ε Ab; PKC-ε Band 1; 50 µg peptide
Protocol: as §4, §5

[12] = biological target: T5, PKC-ε (endogenous, IMR-32 lysate); assay: WB competition Protocol B, IMR-32 extract, vs anti-PKC-ε Ab; PKC-ε Band 2; 20 µg peptide
Protocol: as §4, §5

[13] = biological target: T5, PKC-ε (endogenous, IMR-32 lysate); assay: WB competition Protocol B, IMR-32 extract, vs anti-PKC-ε Ab; PKC-ε Band 2; 50 µg peptide
Protocol: as §4, §5

[14] = biological target: T5, PKC-ε (endogenous, IMR-32 lysate); assay: WB competition Protocol B, IMR-32 extract, vs anti-PKC-ε Ab; PKC-ε Band 1; 100 µg peptide
Protocol: as §4, §5

[15] = biological target: T5, PKC-ε (endogenous, IMR-32 lysate); assay: WB competition Protocol B, IMR-32 extract, vs anti-PKC-ε Ab; PKC-ε Band 2; 100 µg peptide
Protocol: as §4, §5

PKC-α, purified isoform = PKC-α, purified isoform (UniProt P17252 1-672); assay: cell-based or functional assay
PKC-βI, purified isoform [16] = biological target: T6, PKC-βI, purified isoform (UniProt P05771-1 1-671); assay: cell-based or functional assay
T6 sequence (P05771 whole entry, canonical isoform): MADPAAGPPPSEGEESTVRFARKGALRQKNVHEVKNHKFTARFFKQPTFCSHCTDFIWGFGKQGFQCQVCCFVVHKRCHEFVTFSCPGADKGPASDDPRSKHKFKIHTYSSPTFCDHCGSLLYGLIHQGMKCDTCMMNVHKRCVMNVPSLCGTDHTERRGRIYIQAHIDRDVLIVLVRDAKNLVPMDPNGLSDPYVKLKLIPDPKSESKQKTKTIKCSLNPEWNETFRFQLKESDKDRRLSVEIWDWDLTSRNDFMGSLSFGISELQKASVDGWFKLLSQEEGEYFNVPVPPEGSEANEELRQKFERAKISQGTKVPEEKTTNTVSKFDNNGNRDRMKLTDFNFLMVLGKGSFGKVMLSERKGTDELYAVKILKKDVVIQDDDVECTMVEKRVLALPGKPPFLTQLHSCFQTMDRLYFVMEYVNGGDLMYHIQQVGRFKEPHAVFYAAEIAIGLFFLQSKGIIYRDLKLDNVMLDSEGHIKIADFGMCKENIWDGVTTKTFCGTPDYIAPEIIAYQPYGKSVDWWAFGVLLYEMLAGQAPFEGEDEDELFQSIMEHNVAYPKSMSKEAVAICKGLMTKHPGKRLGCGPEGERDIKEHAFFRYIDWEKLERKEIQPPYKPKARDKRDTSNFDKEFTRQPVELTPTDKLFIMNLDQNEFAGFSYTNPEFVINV

[17] = biological target: PKC-βII, purified isoform (UniProt P05771-2 1-673); assay: cell-based or functional assay
Sequence of PKC-βII, purified isoform (P05771 other isoform, or with tags, fused parts or gaps limits assumed): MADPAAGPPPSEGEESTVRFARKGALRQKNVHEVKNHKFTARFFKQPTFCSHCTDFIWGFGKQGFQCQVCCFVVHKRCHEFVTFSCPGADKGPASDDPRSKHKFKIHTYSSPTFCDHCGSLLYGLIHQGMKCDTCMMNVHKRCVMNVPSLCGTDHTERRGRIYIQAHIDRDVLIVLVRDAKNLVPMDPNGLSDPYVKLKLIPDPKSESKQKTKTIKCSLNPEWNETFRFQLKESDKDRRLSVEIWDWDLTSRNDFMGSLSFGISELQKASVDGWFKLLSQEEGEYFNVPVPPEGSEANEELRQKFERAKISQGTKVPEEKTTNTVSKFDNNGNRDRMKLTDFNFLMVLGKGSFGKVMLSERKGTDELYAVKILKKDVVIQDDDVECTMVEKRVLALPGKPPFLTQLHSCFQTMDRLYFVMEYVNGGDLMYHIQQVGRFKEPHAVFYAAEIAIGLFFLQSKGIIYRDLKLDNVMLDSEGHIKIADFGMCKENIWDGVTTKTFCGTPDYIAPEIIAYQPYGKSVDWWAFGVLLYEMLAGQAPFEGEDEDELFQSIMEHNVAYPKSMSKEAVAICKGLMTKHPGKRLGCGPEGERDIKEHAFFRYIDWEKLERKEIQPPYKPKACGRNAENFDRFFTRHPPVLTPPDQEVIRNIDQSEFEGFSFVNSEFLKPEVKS

PKC-ε, purified isoform = biological target: T7, PKC-ε, purified isoform (UniProt Q02156 1-737); assay: cell-based or functional assay
T7 sequence (looked up): T1 sequence (looked up)

PKC-βI, purified isoform [18] = biological target: T6, PKC-βI, purified isoform; assay: purified isoform competition ELISA, summary grade

Sequence of PKC-βI (P05771 whole entry): as the sequence (P05771 whole entry, canonical isoform) above

B1: Compound TIM 20 (PRE 1 and PKI 4) (peptide)
chain: Ac-FRRCFRLGGGGGGGRRKKGGKDFVVKR-NH2
- % Inhibition of kinase activity (Kinase-Glo), compound at 5.0 µM (PKC-α): 19.8%
- % Inhibition of kinase activity (Kinase-Glo), compound at 30.0 µM (PKC-α): 0%
- % Inhibition of kinase activity (Kinase-Glo), compound at 5.0 µM (PKC-βI): 6.7%
- % Inhibition of kinase activity (Kinase-Glo), compound at 30.0 µM (PKC-βI): 15.1%
- % Inhibition of kinase activity (Kinase-Glo), compound at 5.0 µM (PKC-ε): -9%
- % Inhibition of kinase activity (Kinase-Glo), compound at 30.0 µM (PKC-ε): -29%

B2: PRE 3 (peptide)
peptide: Ac-AKGIQEVKGGDAQNLIGISI-NH2
notes: also called peptide PRE 3
- relative binding capacity (100-%n, DMSO subtracted) (PKC-α (purified isoform) [1]): 17.5%
- relative binding capacity (100-%n, DMSO subtracted) (PKC-δ (purified isoform) [2]): 48.3%
- relative binding capacity (100-%n, DMSO subtracted) (PKC-α (purified isoform) [3]): 26.5%
- relative binding capacity (100-%n, DMSO subtracted) (PKC-α (purified isoform) [4]): 22.6%
- relative binding capacity (100-%n, DMSO subtracted) (PKC-δ (purified isoform) [5]): 56%
- relative binding capacity (100-%n, DMSO subtracted) (PKC-δ (purified isoform) [6]): 57%
- relative binding capacity (100-%n, DMSO subtracted) [7]: 26%
- relative binding capacity (100-%n, DMSO subtracted) [8]: 22.5%
- relative binding capacity (100-%n, DMSO subtracted) [9]: 23%
- Band Intensity [10]: 5.12
- Inhibition (%) [10]: 99%
- Relative Intensity (%) [10]: 0.12%
- Band Intensity [11]: 0
- Inhibition (%) [11]: 100%
- Relative Intensity (%) [11]: 0%
- Band Intensity [12]: 0
- Inhibition (%) [12]: 100%
- Relative Intensity (%) [12]: 0%
- Band Intensity [13]: 0
- Inhibition (%) [13]: 100%
- Relative Intensity (%) [13]: 0%
- Band Intensity [14]: 0
- Inhibition (%) [14]: 100%
- Relative Intensity (%) [14]: 0%
- Band Intensity [15]: 0
- Inhibition (%) [15]: 100%
- Relative Intensity (%) [15]: 0%

B3: compound PKI 3 (peptide)
peptide: FRRK(adenine PNA)FRL
- % Inhibition of PKC activity at 150 µM (PKC-α, purified isoform): 47%
- % Inhibition of PKC activity at 300 µM (PKC-α, purified isoform): 51%
- % Inhibition of PKC activity at 600 µM (PKC-α, purified isoform): 82%
- % Inhibition of PKC activity at 150 µM (PKC-βI, purified isoform [16]): 37%
- % Inhibition of PKC activity at 300 µM (PKC-βI, purified isoform [16]): 76%
- % Inhibition of PKC activity at 600 µM (PKC-βI, purified isoform [16]): 80%
- % Inhibition of PKC activity at 150 µM [17]: 31%
- % Inhibition of PKC activity at 300 µM [17]: 83%
- % Inhibition of PKC activity at 600 µM [17]: 81%
- % Inhibition of PKC activity at 150 µM (PKC-ε, purified isoform): 38%
- % Inhibition of PKC activity at 300 µM (PKC-ε, purified isoform): 53%
- % Inhibition of PKC activity at 600 µM (PKC-ε, purified isoform): 68%

B4: PRE 8 (peptide)
peptide: ILEDKGGDAQNLIGISI
notes: also called peptide recognition element 8
- binding result (PKC-βI, purified isoform [18]): no binding

B5: compound PKI 4 (peptide)
peptide: FRRCFRL
- % Inhibition of PKC activity at 150 µM (PKC-α, purified isoform): 80%
- % Inhibition of PKC activity at 300 µM (PKC-α, purified isoform): 80%
- % Inhibition of PKC activity at 600 µM (PKC-α, purified isoform): 80%
- % Inhibition of PKC activity at 150 µM (PKC-βI, purified isoform [16]): 72%
- % Inhibition of PKC activity at 300 µM (PKC-βI, purified isoform [16]): 72%
- % Inhibition of PKC activity at 600 µM (PKC-βI, purified isoform [16]): 82%
- % Inhibition of PKC activity at 150 µM [17]: 83%
- % Inhibition of PKC activity at 300 µM [17]: 83%
- % Inhibition of PKC activity at 600 µM [17]: 82%
- % Inhibition of PKC activity at 150 µM (PKC-ε, purified isoform): 55%
- % Inhibition of PKC activity at 300 µM (PKC-ε, purified isoform): 55%
- % Inhibition of PKC activity at 600 µM (PKC-ε, purified isoform): 77%

B6: Compound TIM 18 (PRE 3 and PKI 4) (peptide)
chain: Ac-FRRCFRLGGGGGGGAKGIQEVKGGDAQNLIGISI-NH2
- % Inhibition of kinase activity (Kinase-Glo), compound at 5.0 µM (PKC-α): 100%
- % Inhibition of kinase activity (Kinase-Glo), compound at 30.0 µM (PKC-α): 100%
- % Inhibition of kinase activity (Kinase-Glo), compound at 5.0 µM (PKC-βI): 76.3%
- % Inhibition of kinase activity (Kinase-Glo), compound at 30.0 µM (PKC-βI): 76.1%
- % Inhibition of kinase activity (Kinase-Glo), compound at 5.0 µM (PKC-ε): -28%
- % Inhibition of kinase activity (Kinase-Glo), compound at 30.0 µM (PKC-ε): 1%
